Experimental data published in patent US7674958B2 (Athenix Corporation, priority 2005, dated 2010).
Where a chain is given by its changes, count along the chain named.

Key:
Type in all cases: cell-based
[1] = test system: E. coli cells containing pAX1967 (GRG51); assay: Glyphosate screen on M63+ plates, GRG51-expressing cells; conditions: 2 days, 37° C.
Protocol: Cells containing pAX1967 were plated onto M63+ plates containing antibiotic and either 0 mM or 20 mM glyphosate. Growth was scored after two days growth at 37° C.

[2] = test system: E. coli strain DH5α with pUC18-Grg23 (pAX1927); assay: Growth on glyphosate plates, grg23-expressing cells; conditions: concentration to which resistance is conferred
Protocol: Isopropyl-B-D-thiogalactopyranoside (IPTG; 0.1 mM) was also added to the plates. As a control, cells containing pUC18 vector alone were transformed and streaked onto glyphosate plates.

BL21*DE3 E. coli cells = assay: Selection of mutant GRG23 enzymes conferring glyphosate resistance in E. coli on 150 mM glyphosate plates; conditions: clones selected on 150 mM glyphosate; extract activity equal to or superior to GRG23
Protocol: The mutagenized syngrg23 libraries were transformed into E. coli strain BL21*DE3 star (Invitrogen). Following transformation, individual colonies were plated on 1× M63 medium containing 150 mM glyphosate to select for clones that had retained enzymatic activity and growth tolerance.
The plates were incubated for 36 hours at 37° C.
Library plates of extracts of mutagenized syngrg23 clones were assayed for improved enzymatic activity as follows: Library clones were pinned into 96-well blocks containing LB medium and were grown to an O.D. of about 0.6. IPTG was then added (0.5 mM) and the blocks were incubated overnight at 20° C. to induce protein expression. Protein extracts were prepared from the cell pellets using POP culture reagent (Novagen), and the enzymatic activity in the crude lysates was measured. […] The DNA sequences of the clones corresponding to these extracts were determined.

## O=C(O)CNCP(=O)(O)O [glyphosate, N-phosphonomethylglycine]
[1]
  resistance to glyphosate: 20 mM
[2]
  glyphosate resistance: at least 100 mM

B1: GRG23(L3P1.B20): GRG23 variant (SEQ ID NO:27), V206→I (protein)
chain: METDRLVIPGSKSITNRALLLAAAAKGTSVLVRPLVSADTSAFKTAIQALGANVSADGDNWVVEGLGQAPHLDADIWCEDAGTVARFLPPFVAAGQGKFTVDGSEQLRRRPLRPLVDGIRHLGARVSSEQLPLTIEASGLAGGEYEIEAHQSSQFASGLIMAAPYARQGLRVRIPNPVSQPYLTMTLRMMRDFGLETSTDGATVSIPPGRYTARRYEIEPDASTASYFAAASAVSGRSFEFQGLGTDSIQGDTSFFNVLGRLGAEVHWAPNSVTISGPERLNGDIEVDMGEISDTFMTLAAIAPLADGPITITNIGHARLKESDRISAMETNLRTLGVQTDVGHDWMRIYPSTPHGGRVNCHRDHRIAMAFSILGLRVDGITLDDPQCVGKTFPGFFDYLGRLFPEKALTLPG
modifications: grg23(L3P1.B20)
BL21*DE3 E. coli cells
  Glyphosate resistance of GRG23 variants: retained glyphosate resistance

B2: GRG23(L3P1.F18): GRG23 variant (SEQ ID NO:31), T274→I (protein)
chain: B1 chain with I206V, T274I
modifications: grg23(L3P1.F18)
BL21*DE3 E. coli cells
  Glyphosate resistance of GRG23 variants: retained glyphosate resistance

B3: GRG23(L3P1.B3): GRG23 variant (SEQ ID NO:29), D75→H, E217→K (protein)
chain: B1 chain with D75H, I206V, E217K
modifications: grg23(L3P1.B3)
BL21*DE3 E. coli cells
  Glyphosate resistance of GRG23 variants: retained glyphosate resistance
